Target: HLA-DPB1 (from the recombinant plasmid pEGFP-N2-HLA-DPB1, expressed in 293T cells) (human) (UniProt P04440)
Assay: flow cytometry on cells

Chain of UniProt P04440 (P04440 30-225): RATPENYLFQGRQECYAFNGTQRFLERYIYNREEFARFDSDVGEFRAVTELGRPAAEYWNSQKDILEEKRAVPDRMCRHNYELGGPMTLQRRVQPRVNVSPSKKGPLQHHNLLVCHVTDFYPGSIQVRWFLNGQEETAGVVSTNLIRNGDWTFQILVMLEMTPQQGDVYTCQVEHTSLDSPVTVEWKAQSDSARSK

## gp42/gHgL complex protein (from UniProt P03205 33-223; P03231 19-706; P03212 23-137)
  HLA-DP+ gp42+ cells (%) at 20 ug gp42 protein: 12.4%
  HLA-DP+ gp42+ cells (%) at 40 ug gp42 protein: 18.4%
  HLA-DP+ gp42+ cells (%) at 80 ug gp42 protein: 27.1%
  HLA-DPB1+ gp42+ cells (%), HLA-DPB1 recombinant plasmid group: 28.9%
  gp42+ cells (%) at 20 ug gp42 protein: 14%
  gp42+ cells (%) at 40 ug gp42 protein: 20.1%
  gp42+ cells (%) at 80 ug gp42 protein: 29.3%
  gp42+ cells (%), HLA-DPB1 recombinant plasmid group: 28.6%

Reference: PMC8798132
